From patent US20230374458A1, “COMPOSITIONS AND METHODS FOR GENERATING HUMAN YOLK SAC-LIKE HEMATOPOIETIC CELLS” (UNIVERSITY HEALTH NETWORK, priority 2020, published 2023) come the findings set out here.

The test system of assay [1] is H1 human embryonic stem cell (hESC) line. Kind of assay: Induction of KDR+CD235a/b+ mesoderm from H1 hESCs (Activin A titration, flow cytometry). The format is cell-based. The procedure: (§1) hPSC differentiation to the hematopoietic lineage was performed in StemPro-34 media supplemented with penicillin/streptomycin (1%, ThermoFisher), L-glutamine (2 mM, ThermoFisher), ascorbic acid (50 μg/mL, Millipore Sigma), transferrin (150 μg/mL, ROCHE), monothioglycerol (50 μg/mL, Millipore Sigma) and other stage-specific factors for example as described below. Differentiation cultures were maintained in hypoxic conditions (37° C., 5% CO2, 5% O2) unless otherwise indicated. On day 0, hPSC cultures at 80-90% confluency were treated with TrypLE for 3 minutes at 37° C. Thereafter, the 80-90% of the TrypLE was aspirated and the cultures were incubated at 37° C. for an additional 2 minutes. […]
(§2) EBs prior to day 9 of differentiation, monolayer cultures and cultures aggregated after cell sorting were dissociated with Trypsin (Corning) for 5 minutes at 37° C. […] For fluorescence-activated cell sorting (FACS), cells were stained, sorted and collected in StemPro-34 media supplemented with penicillin/streptomycin (1%), L-glutamine (2 mM) and DNaseI. […] Thereafter, the sorted cells were counted and resuspended at 250,000 cells/mL in StemPro-34 media supplemented with recombinant factors appropriate for the day of differentiation. […]

The next assay relates to CHOPWT10 human iPSC line. The assay is described as follows: Induction of KDR+CD235a/b+ mesoderm from CHOPWT10 iPSCs (Activin A titration, flow cytometry). The assay is classed as cell-based. As for the experimental part:
as §1, §2

B1: Activin A: activin receptor agonist; human Activin A (Uniprot accession number: P08476), recombinant, from R&D Systems (protein, UniProt P08476 311-426, looked up)
Inhibin beta A chain: GLECDGKVNICCKKQFFVSFKDIGWNDWIIAPSGYHANYCEGECPSHIAGTSGSSLSFHSTVINHYRMRGHSPFANLKSCCVPTKLRPMSMLYYDDGQNIIKKDIQNMIVEECGCS
As for B1, the “proportion of KDR+CD235a/b+ cells” value is reported as “greater than 30%” in assay [1] (6 ng/mL Activin A with 10 ng/mL BMP4 and 5 ng/mL FGF2, day 4 of differentiation, H1); “greater than 30%” in the assay on CHOPWT10 human iPSC line (2 ng/mL Activin A, CHOPWT10 human iPSC line, day 4). The “frequency of CD235a/b+ cells” value in assay [1] (Activin A 0 to 10 ng/mL with BMP4 10 ng/mL and FGF2 5 ng/mL from day 1 of differentiation) was “increased in an Activin A dose-dependent manner and plateaued when its concentration exceeded 6 ng/mL”. In addition, the “proportion of KDR+CD235a/b+ cells at day 4 of differentiation” value with CHOPWT10 human iPSC line (2 or 4 ng/mL Activin A within 0 to 10 ng/mL titration, with BMP4 10 ng/mL and FGF2 5 ng/mL, days 1 to 4) is “highest proportion”.
